# Results reported in doi:10.1101/2024.09.05.611400.
# pKi: −log10 of the molar value.
# Target: SARS-CoV-2 main protease (M^pro), commercial recombinant (rcM^pro) (SARS-CoV-2) (UniProt P0DTD1)
# Assay: enzyme inhibition assay
substance,measurement,value
PPACK (D-Phe-Pro-Arg-CH2Cl) (peptide),pKi,6.80
